Test [1] deals with human IL-4R overexpressed on glioblastoma cells (LN229-IL4R, U87-IL4R, U251-IL4R) (human) (UniProt P24394). The test can be described thus: flow cytometry, U87-IL4R cells, 20 ug/mL. For orientation: A flow cytometer gives signals particle by particle.
Test [2] shares this target. The test can be described thus: flow cytometry, U251-IL4R cells, 20 ug/mL.
Test [3] has the same target. Kind of test: flow cytometry, LN229-IL4R cells, 20 ug/mL.
Test [4] has the same target. The test can be described thus: flow cytometry, U87-IL4R cells, 0.027435 ug/mL.
The target is the same in test [5]. The test can be described thus: flow cytometry, U87-IL4R cells, 0.082305 ug/mL.
For test [6] the target is unchanged. Kind of test: flow cytometry, U87-IL4R cells, 0.246914 ug/mL.
For test [7] the target is unchanged. Kind of test: flow cytometry, U87-IL4R cells, 0.740741 ug/mL.
For test [8] the target is unchanged. Kind of test: flow cytometry, U87-IL4R cells, 2.222222 ug/mL.
Test [9] has the same target. The test can be described thus: flow cytometry, U87-IL4R cells, 6.666667 ug/mL.
For test [10] the target is unchanged. Kind of test: flow cytometry, U251-IL4R cells, 0.027435 ug/mL.
For test [11] the target is unchanged. The test can be described thus: flow cytometry, U251-IL4R cells, 0.082305 ug/mL.
Test [12] shares this target. Kind of test: flow cytometry, U251-IL4R cells, 0.246914 ug/mL.
For test [13] the target is unchanged. Kind of test: flow cytometry, U251-IL4R cells, 0.740741 ug/mL.
Test [14] shares this target. Kind of test: flow cytometry, U251-IL4R cells, 2.222222 ug/mL.
Test [15] shares this target. The test can be described thus: flow cytometry, U251-IL4R cells, 6.666667 ug/mL.
Test [16] has the same target. The test can be described thus: flow cytometry, LN229-IL4R cells, 0.027435 ug/mL.
Test [17] has the same target. The test can be described thus: flow cytometry, LN229-IL4R cells, 0.082305 ug/mL.
Test [18] shares this target. The test can be described thus: flow cytometry, LN229-IL4R cells, 0.246914 ug/mL.
The target is the same in test [19]. Kind of test: flow cytometry, LN229-IL4R cells, 0.740741 ug/mL.
Test [20] has the same target. Kind of test: flow cytometry, LN229-IL4R cells, 2.222222 ug/mL.
Test [21] has the same target. Kind of test: flow cytometry, LN229-IL4R cells, 6.666667 ug/mL.
For test [22] the target is unchanged. The test can be described thus: cell-based or functional assay.
For test [23], the target named is rhIL-4R-Fc (ILR-H5253, Acro) (human) (UniProt P24394). The test can be described thus: SPR Biacore 8K, rhIL-4R-Fc captured by anti-human IgG on CM5, immunotoxin as analyte. For orientation: In SPR one partner is held on a chip, and binding of the other changes the refractive index at the surface.
In test [24] the target is T1, rhIL-4R-Fc (ILR-H5253, Acro) (human, UniProt P24394 26-232).
T1 sequence: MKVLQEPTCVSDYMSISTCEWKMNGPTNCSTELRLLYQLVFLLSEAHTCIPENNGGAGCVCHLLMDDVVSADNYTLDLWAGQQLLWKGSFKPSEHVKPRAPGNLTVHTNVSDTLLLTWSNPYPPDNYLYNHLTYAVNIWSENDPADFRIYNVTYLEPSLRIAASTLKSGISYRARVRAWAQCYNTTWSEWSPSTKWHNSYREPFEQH

The term Kd denotes the equilibrium constant for the complex coming apart. Higher therefore signals lower affinity. By koff is commonly meant the rate constant with which the complex falls apart. Lower therefore signals slow dissociation. Broadly, the kon is a measure of how fast the partners come together. Lower therefore signals slower complex formation.

For hIgG1 isotype control (antibody), the Mean MFI in test [1] was 318 MFI; in test [2] it was 275 MFI; in [3] it was 231 MFI; in [4] it was 588 MFI; in test [5], 394 MFI; in test [6], 322 MFI. The Mean MFI in test [7] turned out to be 339 MFI; in test [8], 334 MFI; in test [9], 306 MFI; in test [10], 263 MFI; in [11], 274 MFI; in test [12] it was 287 MFI. In addition, the Mean MFI stood at 284 MFI in [13]; 282 MFI in [14]; 288 MFI in test [15]; 352 MFI in [16]; 318 MFI in test [17]; 300 MFI in test [18]. Besides, the Mean MFI in test [19] worked out at 286 MFI; in test [20], 361 MFI; in [21], 244 MFI.

With MDNA55 (ligand), the in vitro killing (CTG cell viability), LN229-IL4R cells in test [22] is 80%. The Mean MFI worked out at 32700 MFI in [1]; 22600 MFI in test [2]; 24300 MFI in [3]; 9120 MFI in test [4]; 12000 MFI in [5]; 17100 MFI in [6]. The Mean MFI in test [7] is 21600 MFI; in test [8] it was 25300 MFI; in [9] it was 29700 MFI; in [10], 3180 MFI; in [11], 5860 MFI; in test [12], 8130 MFI. Also, the Mean MFI in [13] worked out at 10700 MFI; in [14] it was 13700 MFI; in test [15], 17500 MFI; in test [16], 4470 MFI; in [17], 8310 MFI; in test [18] it was 12400 MFI. For the same molecule, the Mean MFI came to 16200 MFI in [19], 19400 MFI in [20] and 21100 MFI in test [21]. In test [23], the Kd stood at 0.439 nM. Besides, in [23], the off-rate (koff) came out at 0.0029 s⁻¹. For the same molecule, in [23], the on-rate constant (kon) is 6.62e+06 M⁻¹ s⁻¹.

B1: 25G7-(scdsFv)-PE38KDEL (scFv)
scFv: EVQLVESGGGLVQPGGSLRLSCAASGFTFSDYGMHWVRQAPGKCLEWVAFISSGSSIIYYADIVKGRSTISRDNAKNTLYLQMNSLRAEDTAVYYCTRGNKRGFFDYWGQGTLVTVSSGGGGSGGGGSGGGGSEIVLTQSPATLSLSPGERATLSCRASSSVPYMYWYQQKPGQAPRLLIYLTSNLASGIPARFSGSGSGTDFTLTISSLEPEDFAVYYCQQWRAYPPMLTFGCGTKVEIKASGGPEEGGSLAALTAHQACHLPLETFTRHRQPRGWEQLEQCGYPVQRLVALYLAARLSWNQVDQVIRNALASPGSGGDLGEAIREQPEQARLALTLAAAESERFVRQGTGNDEAGAANGPADSGDALLERNYPTGAEFLGDGGDVSFSTRGTQNWTVERLLQAHRQLEERGYVFVGYHGTFLEAAQSIVFGGVRARSQDLDAIWRGFYIAGDPALAYGYAQDQEPDARGRIRNGALLRVYVPRSSLPGFYRTSLTLAAPEAAGEVERLIGHPLPLRLDAITGPEEEGGRLETILGWPLAERTVVIPSAIPTDPRNVGGDLDPSSIPDKEQAISALPDYASQPGKPPKDEL
In test [24], B1 displayed a Kd of 0.101 nM, a koff of 0.000279 s⁻¹ and a kon of 2.77e+06 M⁻¹ s⁻¹.
